This is an account of results in the Human Domainome abundance scans (Beltran et al. 2025).

± gives the uncertainty stated by the source.

This data set in a line: abundance fitness (aPCA) (normalised: wild type 0, dead -1); higher = more abundant; growth selection in yeast, the domain comes from the species named. The following applies: Homo sapiens.
“Scaffold attachment factor B2 L47A, Q14151” came in with an abundance fitness of -0.393 ± 0.079.

“Scaffold attachment factor B2 L47C, Q14151” returned an abundance fitness of -0.339 ± 0.096.

“Scaffold attachment factor B2 L47D, Q14151” gave an abundance fitness of -0.491 ± 0.11.

In the case of “Scaffold attachment factor B2 L47E, Q14151”, the abundance fitness was -0.394 ± 0.098.

As for “Scaffold attachment factor B2 L47G, Q14151”, the abundance fitness was -0.616 ± 0.068.

With “Scaffold attachment factor B2 L47H, Q14151”, the abundance fitness was -0.789 ± 0.25.

The substance “Scaffold attachment factor B2 L47I, Q14151” displayed an abundance fitness of -0.534 ± 0.19.

“Scaffold attachment factor B2 L47K, Q14151” yielded an abundance fitness of -0.246 ± 0.11.

The substance “Scaffold attachment factor B2 L47M, Q14151” came in with an abundance fitness of -0.265 ± 0.13.

Consider “Scaffold attachment factor B2 L47N, Q14151”, for which the abundance fitness was -0.877 ± 0.23.

Substance “Scaffold attachment factor B2 L47P, Q14151” registered an abundance fitness of -0.194 ± 0.45.

“Scaffold attachment factor B2 L47Q, Q14151” had an abundance fitness of -0.287 ± 0.12.

Consider “Scaffold attachment factor B2 L47R, Q14151”, for which the abundance fitness was -0.524 ± 0.076.

“Scaffold attachment factor B2 L47S, Q14151” returned an abundance fitness of -0.632 ± 0.093.

“Scaffold attachment factor B2 L47T, Q14151”: the abundance fitness was -0.409 ± 0.13.

As to “Scaffold attachment factor B2 L47V, Q14151”, the abundance fitness was -0.622 ± 0.083.

The substance “Scaffold attachment factor B2 L47W, Q14151” had an abundance fitness of -0.696 ± 0.11.

In the case of “Scaffold attachment factor B2 L47Y, Q14151”, the abundance fitness is -0.714 ± 0.1.

Substance “Scaffold attachment factor B2 L56A, Q14151” gave an abundance fitness of -0.374 ± 0.091.

The substance “Scaffold attachment factor B2 L56D, Q14151” displayed an abundance fitness of -0.349 ± 0.13.

With “Scaffold attachment factor B2 L56F, Q14151”, the abundance fitness was -0.816 ± 0.12.

The substance “Scaffold attachment factor B2 L56G, Q14151” came in with an abundance fitness of -0.285 ± 0.079.

For the substance “Scaffold attachment factor B2 L56H, Q14151”, the abundance fitness is -0.296 ± 0.094.

In turn, “Scaffold attachment factor B2 L56K, Q14151” returned an abundance fitness of -0.524 ± 0.096.

Consider “Scaffold attachment factor B2 L56M, Q14151”, for which the abundance fitness was -0.179 ± 0.099.

In turn, “Scaffold attachment factor B2 L56N, Q14151” registered an abundance fitness of -1.2 ± 0.43.

In turn, “Scaffold attachment factor B2 L56P, Q14151” registered an abundance fitness of -0.319 ± 0.13.

“Scaffold attachment factor B2 L56Q, Q14151” yielded an abundance fitness of -0.378 ± 0.28.

“Scaffold attachment factor B2 L56R, Q14151” had an abundance fitness of -0.39 ± 0.07.

As to “Scaffold attachment factor B2 L56S, Q14151”, the abundance fitness was -0.434 ± 0.1.

In the case of “Scaffold attachment factor B2 L56T, Q14151”, the abundance fitness was -0.546 ± 0.12.

“Scaffold attachment factor B2 L56V, Q14151”: the abundance fitness was -0.369 ± 0.082.

“Scaffold attachment factor B2 L56W, Q14151” showed an abundance fitness of -0.631 ± 0.086.

“Scaffold attachment factor B2 L56Y, Q14151” yielded an abundance fitness of -1.01 ± 0.23.

“Scaffold attachment factor B2 L60A, Q14151” had an abundance fitness of -0.323 ± 0.094.

The substance “Scaffold attachment factor B2 L60C, Q14151” showed an abundance fitness of -0.691 ± 0.14.

As to “Scaffold attachment factor B2 L60D, Q14151”, the abundance fitness was -0.019 ± 0.14.

On to “Scaffold attachment factor B2 L60F, Q14151”, for which the abundance fitness is -0.448 ± 0.16.

“Scaffold attachment factor B2 L60G, Q14151”: the abundance fitness is -0.25 ± 0.084.

The substance “Scaffold attachment factor B2 L60K, Q14151” showed an abundance fitness of -0.204 ± 0.14.

In turn, “Scaffold attachment factor B2 L60M, Q14151” had an abundance fitness of -0.343 ± 0.15.

In turn, “Scaffold attachment factor B2 L60N, Q14151” gave an abundance fitness of -0.35 ± 0.22.

For “Scaffold attachment factor B2 L60P, Q14151”, the abundance fitness was -0.102 ± 0.14.

For “Scaffold attachment factor B2 L60Q, Q14151”, the abundance fitness was -0.271 ± 0.15.

Regarding “Scaffold attachment factor B2 L60S, Q14151”, the abundance fitness was -0.398 ± 0.16.

“Scaffold attachment factor B2 L60V, Q14151”: the abundance fitness is -0.361 ± 0.09.

The substance “Scaffold attachment factor B2 M57A, Q14151” registered an abundance fitness of -0.454 ± 0.087.

Substance “Scaffold attachment factor B2 M57C, Q14151” yielded an abundance fitness of -0.504 ± 0.12.

In turn, “Scaffold attachment factor B2 M57D, Q14151” gave an abundance fitness of -0.788 ± 0.18.

“Scaffold attachment factor B2 M57E, Q14151” had an abundance fitness of -0.292 ± 0.11.

The substance “Scaffold attachment factor B2 M57G, Q14151” displayed an abundance fitness of -0.631 ± 0.09.

In turn, “Scaffold attachment factor B2 M57H, Q14151” registered an abundance fitness of -0.392 ± 0.14.

Take “Scaffold attachment factor B2 M57I, Q14151”: the abundance fitness is -0.319 ± 0.099.

“Scaffold attachment factor B2 M57K, Q14151” had an abundance fitness of -0.473 ± 0.13.

The substance “Scaffold attachment factor B2 M57L, Q14151” had an abundance fitness of -0.088 ± 0.11.

The substance “Scaffold attachment factor B2 M57N, Q14151” gave an abundance fitness of -0.492 ± 0.14.

For the substance “Scaffold attachment factor B2 M57P, Q14151”, the abundance fitness is -0.66 ± 0.093.

Take “Scaffold attachment factor B2 M57Q, Q14151”: the abundance fitness is -0.364 ± 0.094.

With “Scaffold attachment factor B2 M57S, Q14151”, the abundance fitness was -0.49 ± 0.088.

For the substance “Scaffold attachment factor B2 M57T, Q14151”, the abundance fitness was -0.363 ± 0.1.

“Scaffold attachment factor B2 M57V, Q14151”: the abundance fitness is -0.189 ± 0.08.

Consider “Scaffold attachment factor B2 M57W, Q14151”, for which the abundance fitness was -0.791 ± 0.11.

“Scaffold attachment factor B2 N46A, Q14151” gave an abundance fitness of -0.317 ± 0.076.

With “Scaffold attachment factor B2 N46C, Q14151”, the abundance fitness was -0.656 ± 0.12.

The substance “Scaffold attachment factor B2 N46D, Q14151” registered an abundance fitness of -0.104 ± 0.12.

In turn, “Scaffold attachment factor B2 N46E, Q14151” came in with an abundance fitness of -0.131 ± 0.092.

Regarding “Scaffold attachment factor B2 N46G, Q14151”, the abundance fitness is 0.006 ± 0.084.

In the case of “Scaffold attachment factor B2 N46H, Q14151”, the abundance fitness is -0.432 ± 0.16.

For the substance “Scaffold attachment factor B2 N46K, Q14151”, the abundance fitness was -0.214 ± 0.088.

With “Scaffold attachment factor B2 N46L, Q14151”, the abundance fitness is -0.355 ± 0.087.

Consider “Scaffold attachment factor B2 N46M, Q14151”, for which the abundance fitness was -0.394 ± 0.17.

“Scaffold attachment factor B2 N46P, Q14151” came in with an abundance fitness of -0.514 ± 0.087.

Substance “Scaffold attachment factor B2 N46Q, Q14151” returned an abundance fitness of 0.023 ± 0.14.

On to “Scaffold attachment factor B2 N46R, Q14151”, for which the abundance fitness is -0.358 ± 0.073.

Turning to “Scaffold attachment factor B2 N46S, Q14151”, the abundance fitness was -0.135 ± 0.088.

Regarding “Scaffold attachment factor B2 N46T, Q14151”, the abundance fitness is -0.444 ± 0.099.

Substance “Scaffold attachment factor B2 N46V, Q14151” displayed an abundance fitness of -0.515 ± 0.081.

Consider “Scaffold attachment factor B2 N46W, Q14151”, for which the abundance fitness was -1.28 ± 0.2.

In turn, “Scaffold attachment factor B2 N46Y, Q14151” showed an abundance fitness of -0.484 ± 0.11.

As for “Scaffold attachment factor B2 N52A, Q14151”, the abundance fitness is -0.132 ± 0.088.

Take “Scaffold attachment factor B2 N52D, Q14151”: the abundance fitness is 0.11 ± 0.13.

Substance “Scaffold attachment factor B2 N52E, Q14151” yielded an abundance fitness of 0.123 ± 0.11.

The substance “Scaffold attachment factor B2 N52F, Q14151” gave an abundance fitness of -0.701 ± 0.18.

“Scaffold attachment factor B2 N52G, Q14151” came in with an abundance fitness of -0.037 ± 0.087.

The substance “Scaffold attachment factor B2 N52H, Q14151” gave an abundance fitness of -0.719 ± 0.14.

On to “Scaffold attachment factor B2 N52I, Q14151”, for which the abundance fitness was -0.237 ± 0.12.

As for “Scaffold attachment factor B2 N52K, Q14151”, the abundance fitness is -0.123 ± 0.093.

Regarding “Scaffold attachment factor B2 N52L, Q14151”, the abundance fitness was -0.511 ± 0.081.

As for “Scaffold attachment factor B2 N52M, Q14151”, the abundance fitness was -0.442 ± 0.11.

For “Scaffold attachment factor B2 N52P, Q14151”, the abundance fitness is -0.074 ± 0.088.

As to “Scaffold attachment factor B2 N52Q, Q14151”, the abundance fitness was -0.63 ± 0.31.

Substance “Scaffold attachment factor B2 N52R, Q14151” showed an abundance fitness of -0.229 ± 0.081.

“Scaffold attachment factor B2 N52T, Q14151” showed an abundance fitness of -0.037 ± 0.093.

“Scaffold attachment factor B2 N52V, Q14151” returned an abundance fitness of -0.116 ± 0.089.

“Scaffold attachment factor B2 N52W, Q14151” had an abundance fitness of -1.06 ± 0.13.

In the case of “Scaffold attachment factor B2 N52Y, Q14151”, the abundance fitness is -0.587 ± 0.28.
